Test results reported in the Human Domainome abundance scans (Beltran et al. 2025).
± gives the uncertainty stated by the source.

B1: KAT8 regulatory NSL complex subunit 2, residues 28 to 91; numbered along this chain, Q9H9L4 (parent)
chain: CAFTHRPCSHPRLEGQEFCIKHILEDKNAPFKQCSYISTKNGKRCPNAAPKPEKKDGVSFCAEH

Variants of: B1
Test: abundance fitness (aPCA) (normalised: wild type 0, dead -1); higher = more abundant; growth selection in yeast, the domain comes from the species named
Conditions: Homo sapiens
Work on CAFTHRPCSHPRLEGQEFCIKHILEDKNAPTKQCSYISTKNGKRCPNAAPKPEKKDGVSFCAEH [F31T] yielded an abundance fitness of -0.21 ± 0.063.
CAFTHRPCSHPRLEGQEFCIKHILEDKNAPHKQCSYISTKNGKRCPNAAPKPEKKDGVSFCAEH [F31H] showed an abundance fitness of -0.261 ± 0.12.
Variant CAFTHRPCSHPRLEGQEFCIKHILEDKNAPGKQCSYISTKNGKRCPNAAPKPEKKDGVSFCAEH [F31G] has an abundance fitness of -0.1 ± 0.062.
CAFTHRPCSHPRLEGQEFCIKHILEDKNAPRKQCSYISTKNGKRCPNAAPKPEKKDGVSFCAEH [F31R] gave an abundance fitness of -0.203 ± 0.059.
CAFTHRPCSHPRLEGQEFCIKHILEDKNAPAKQCSYISTKNGKRCPNAAPKPEKKDGVSFCAEH [F31A] showed an abundance fitness of -0.197 ± 0.046.
For CAFTHRPCSHPRLEGQEFCIKHILEDKNAPKKQCSYISTKNGKRCPNAAPKPEKKDGVSFCAEH [F31K], the abundance fitness was -0.195 ± 0.068.
Work on CAFTHRPCSHPRLEGQEFCIKHILEDKNAPIKQCSYISTKNGKRCPNAAPKPEKKDGVSFCAEH [F31I] yielded an abundance fitness of -0.391 ± 0.13.
For CAFTHRPCSHPRLEGQEFCIKHILEDKNAPVKQCSYISTKNGKRCPNAAPKPEKKDGVSFCAEH [F31V], the abundance fitness was -0.248 ± 0.048.
With CAFTHRPCSHPRLEGQEFCIKHILEDKWAPFKQCSYISTKNGKRCPNAAPKPEKKDGVSFCAEH [N28W] the abundance fitness was -0.312 ± 0.068.
With CAFTHRPCSHPRLEGQEFCIKHILEDKLAPFKQCSYISTKNGKRCPNAAPKPEKKDGVSFCAEH [N28L] the abundance fitness was -0.093 ± 0.051.
For CAFTHRPCSHPRLEGQEFCIKHILEDKSAPFKQCSYISTKNGKRCPNAAPKPEKKDGVSFCAEH [N28S], the abundance fitness was -0.006 ± 0.057.
CAFTHRPCSHPRLEGQEFCIKHILEDKVAPFKQCSYISTKNGKRCPNAAPKPEKKDGVSFCAEH [N28V] showed an abundance fitness of -0.121 ± 0.056.
For CAFTHRPCSHPRLEGQEFCIKHILEDKQAPFKQCSYISTKNGKRCPNAAPKPEKKDGVSFCAEH [N28Q], the abundance fitness was -0.069 ± 0.076.
CAFTHRPCSHPRLEGQEFCIKHILEDKPAPFKQCSYISTKNGKRCPNAAPKPEKKDGVSFCAEH [N28P] showed an abundance fitness of -0.215 ± 0.051.
With CAFTHRPCSHPRLEGQEFCIKHILEDKDAPFKQCSYISTKNGKRCPNAAPKPEKKDGVSFCAEH [N28D] the abundance fitness was -0.252 ± 0.17.
For CAFTHRPCSHPRLEGQEFCIKHILEDKEAPFKQCSYISTKNGKRCPNAAPKPEKKDGVSFCAEH [N28E], the abundance fitness was -0.07 ± 0.084.
CAFTHRPCSHPRLEGQEFCIKHILEDKGAPFKQCSYISTKNGKRCPNAAPKPEKKDGVSFCAEH [N28G] showed an abundance fitness of -0.11 ± 0.064.
In the case of CAFTHRPCSHPRLEGQEFCIKHILEDKCAPFKQCSYISTKNGKRCPNAAPKPEKKDGVSFCAEH [N28C], the abundance fitness is reported as -0.142 ± 0.13.
In the case of CAFTHRPCSHPRLEGQEFCIKHILEDKRAPFKQCSYISTKNGKRCPNAAPKPEKKDGVSFCAEH [N28R], the abundance fitness is reported as -0.049 ± 0.041.
With CAFTHRPCSHPRLEGQEFCIKHILEDKFAPFKQCSYISTKNGKRCPNAAPKPEKKDGVSFCAEH [N28F] the abundance fitness was -0.083 ± 0.11.
CAFTHRPCSHPRLEGQEFCIKHILEDKHAPFKQCSYISTKNGKRCPNAAPKPEKKDGVSFCAEH [N28H] gave an abundance fitness of -0.028 ± 0.13.
Variant CAFTHRPCSHPRLEGQEFCIKHILEDKKAPFKQCSYISTKNGKRCPNAAPKPEKKDGVSFCAEH [N28K] has an abundance fitness of -0.1 ± 0.088.
Variant CAFTHRPCSHPRLEGQEFCIKHILEDKMAPFKQCSYISTKNGKRCPNAAPKPEKKDGVSFCAEH [N28M] has an abundance fitness of -0.107 ± 0.079.
CAFTHRPCSHPRLEGQEFCIKHILEDKTAPFKQCSYISTKNGKRCPNAAPKPEKKDGVSFCAEH [N28T] gave an abundance fitness of -0.031 ± 0.068.
With CAFTHRPCSHPRLEGQEFCIKHILEDKAAPFKQCSYISTKNGKRCPNAAPKPEKKDGVSFCAEH [N28A] the abundance fitness was -0.118 ± 0.1.
With CAFTHRPCSHPRLEGQEFCIKHILEDMNAPFKQCSYISTKNGKRCPNAAPKPEKKDGVSFCAEH [K27M] the abundance fitness was -0.269 ± 0.074.
Variant CAFTHRPCSHPRLEGQEFCIKHILEDGNAPFKQCSYISTKNGKRCPNAAPKPEKKDGVSFCAEH [K27G] has an abundance fitness of -0.191 ± 0.068.
With CAFTHRPCSHPRLEGQEFCIKHILEDCNAPFKQCSYISTKNGKRCPNAAPKPEKKDGVSFCAEH [K27C] the abundance fitness was -0.194 ± 0.082.
Variant CAFTHRPCSHPRLEGQEFCIKHILEDHNAPFKQCSYISTKNGKRCPNAAPKPEKKDGVSFCAEH [K27H] has an abundance fitness of -0.094 ± 0.11.
With CAFTHRPCSHPRLEGQEFCIKHILEDPNAPFKQCSYISTKNGKRCPNAAPKPEKKDGVSFCAEH [K27P] the abundance fitness was -0.091 ± 0.058.
For CAFTHRPCSHPRLEGQEFCIKHILEDLNAPFKQCSYISTKNGKRCPNAAPKPEKKDGVSFCAEH [K27L], the abundance fitness was -0.158 ± 0.041.
For CAFTHRPCSHPRLEGQEFCIKHILEDRNAPFKQCSYISTKNGKRCPNAAPKPEKKDGVSFCAEH [K27R], the abundance fitness was -0.12 ± 0.057.
With CAFTHRPCSHPRLEGQEFCIKHILEDINAPFKQCSYISTKNGKRCPNAAPKPEKKDGVSFCAEH [K27I] the abundance fitness was -0.091 ± 0.063.
CAFTHRPCSHPRLEGQEFCIKHILEDNNAPFKQCSYISTKNGKRCPNAAPKPEKKDGVSFCAEH [K27N] showed an abundance fitness of -0.044 ± 0.097.
CAFTHRPCSHPRLEGQEFCIKHILEDSNAPFKQCSYISTKNGKRCPNAAPKPEKKDGVSFCAEH [K27S] gave an abundance fitness of -0.093 ± 0.049.
Variant CAFTHRPCSHPRLEGQEFCIKHILEDVNAPFKQCSYISTKNGKRCPNAAPKPEKKDGVSFCAEH [K27V] has an abundance fitness of -0.104 ± 0.062.
In the case of CAFTHRPCSHPRLEGQEFCIKHILEDQNAPFKQCSYISTKNGKRCPNAAPKPEKKDGVSFCAEH [K27Q], the abundance fitness is reported as -0.149 ± 0.095.
In the case of CAFTHRPCSHPRLEGQEFCIKHILEDFNAPFKQCSYISTKNGKRCPNAAPKPEKKDGVSFCAEH [K27F], the abundance fitness is reported as -0.3 ± 0.079.
With CAFTHRPCSHPRLEGQEFCIKHILEDYNAPFKQCSYISTKNGKRCPNAAPKPEKKDGVSFCAEH [K27Y] the abundance fitness was -0.202 ± 0.067.
For CAFTHRPCSHPRLEGQEFCIKHILEDWNAPFKQCSYISTKNGKRCPNAAPKPEKKDGVSFCAEH [K27W], the abundance fitness was -0.215 ± 0.085.
In the case of CAFTHRPCSHPRLEGQEFCIKHILEDENAPFKQCSYISTKNGKRCPNAAPKPEKKDGVSFCAEH [K27E], the abundance fitness is reported as -0.079 ± 0.074.
With CAFTHRPCSHPRLEGQEFCIKHILEDDNAPFKQCSYISTKNGKRCPNAAPKPEKKDGVSFCAEH [K27D] the abundance fitness was -0.172 ± 0.097.
